Columns and labels:
[1] = target: P. aeruginosa RloA2, PA0462 (18–169) (P. aeruginosa); assay: SEC-MALS
[2] = target: P. fluorescens RloA, Pfl01_1762 (20–178) (P. fluorescens); assay: SEC-MALS

| Substance | stoichiometry N [1] | stoichiometry N [2] |
| --- | --- | --- |
| P. aeruginosa RloA2, PA0462 (18–169) (enzyme) | 2 | – |
| P. fluorescens RloA, Pfl01_1762 (20–178) (enzyme) | – | 2 |

Reference: publication PMC11957051
